Here are results for 1 molecule from patent publication US20250250350A1 (ARSENAL BIOSCIENCES, published 2025).

One test has as its target T1, ALPG-AF647 (human, UniProt P10696, AF647 fluorophore label, site not given).
T1 construct: soluble labelled staining reagent; Same protein as m5, here as a soluble staining reagent
As to the kind of experiment: flow cytometry, primary T cells with constitutive CAR and no PrimeR, stained with ALPG-AF647 and MSLN-Bio / streptavidin-PE; reagent concentration not given. (A flow cytometer gives signals particle by particle.)

The target of the next test is T2, GP2 on K562-GP2 cells (UniProt P55259 29-512, limits assumed).
T2 construct: whole, on cells
As to the kind of experiment: 24 h co-culture of MSLN CAR (LG1 CAR) T cells with K562-GP2 target cells, end-point luciferase cytotoxicity, RNP-only T cells as control. The text has this: (§1) T cells from four donors were engineered to constitutively express the MSLN CAR (LG1 CAR) using the manufacturing process described in Example 1 and were frozen and cryobanked at Day 9 after initial activation. […] On the day of the assay, MSLN CAR and RNP only control T cells were counted and resuspended in medium without IL-7 and IL-15 and serially diluted and added to 96-well flat-bottom, white-walled assay plates. The serial dilution of T cells results in the following co-culture effector:target (E:T) ratios once 1e4 THP-1 or K562 (negative control), K562-MSLN (positive control) and K562-GP2 target cells were added/well: 3:1, 1:1, 1:3 in technical duplicates. Prepared plates with T cells and target cells were incubated at 37° C. for 24 hours with a breathable membrane on each plate. Cytotoxicity at the end of the 24 hour co-culture was measured using an end-point luciferase assay.

A further test has as its target T3, SLC2A9 on THP-1 cells (UniProt Q9NRM0 1-540, limits assumed).
T3 construct: whole, on cells; also called SLC2A9+ cells (THP-1 cells)
T3 sequence (looked up): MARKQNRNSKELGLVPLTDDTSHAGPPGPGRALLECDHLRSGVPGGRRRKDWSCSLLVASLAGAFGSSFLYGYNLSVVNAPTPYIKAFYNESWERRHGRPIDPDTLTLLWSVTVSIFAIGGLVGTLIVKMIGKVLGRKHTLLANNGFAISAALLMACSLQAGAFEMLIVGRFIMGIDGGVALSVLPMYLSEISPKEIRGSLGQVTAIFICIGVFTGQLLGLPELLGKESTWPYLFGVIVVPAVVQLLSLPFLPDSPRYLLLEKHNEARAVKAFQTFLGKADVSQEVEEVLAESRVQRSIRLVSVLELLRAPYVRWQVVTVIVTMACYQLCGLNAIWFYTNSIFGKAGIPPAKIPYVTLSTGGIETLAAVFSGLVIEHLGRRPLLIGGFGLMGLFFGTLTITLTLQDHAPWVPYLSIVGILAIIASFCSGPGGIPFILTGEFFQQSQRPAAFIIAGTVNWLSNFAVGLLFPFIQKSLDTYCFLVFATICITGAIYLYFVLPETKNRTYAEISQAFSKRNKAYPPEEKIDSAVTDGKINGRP
As to the kind of experiment: 24 h co-culture of MSLN CAR (LG1 CAR) T cells with THP-1 (SLC2A9+) target cells, end-point luciferase cytotoxicity, RNP-only T cells as control.
Text: as §1

T2 sequence (P55259 29-512 limits assumed): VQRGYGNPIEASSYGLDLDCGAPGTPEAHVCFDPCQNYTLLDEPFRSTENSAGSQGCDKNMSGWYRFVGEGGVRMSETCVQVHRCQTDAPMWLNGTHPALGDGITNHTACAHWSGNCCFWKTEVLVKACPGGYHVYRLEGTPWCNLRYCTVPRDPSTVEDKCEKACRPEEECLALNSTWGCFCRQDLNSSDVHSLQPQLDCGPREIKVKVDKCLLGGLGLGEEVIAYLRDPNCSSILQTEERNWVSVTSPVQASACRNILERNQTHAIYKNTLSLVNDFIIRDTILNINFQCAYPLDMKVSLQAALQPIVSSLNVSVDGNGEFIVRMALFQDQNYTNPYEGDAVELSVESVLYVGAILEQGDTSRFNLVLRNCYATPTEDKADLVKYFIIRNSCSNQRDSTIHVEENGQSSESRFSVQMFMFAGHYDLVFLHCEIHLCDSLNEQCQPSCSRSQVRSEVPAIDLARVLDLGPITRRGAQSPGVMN
T1 sequence (P10696 20-503 limits assumed): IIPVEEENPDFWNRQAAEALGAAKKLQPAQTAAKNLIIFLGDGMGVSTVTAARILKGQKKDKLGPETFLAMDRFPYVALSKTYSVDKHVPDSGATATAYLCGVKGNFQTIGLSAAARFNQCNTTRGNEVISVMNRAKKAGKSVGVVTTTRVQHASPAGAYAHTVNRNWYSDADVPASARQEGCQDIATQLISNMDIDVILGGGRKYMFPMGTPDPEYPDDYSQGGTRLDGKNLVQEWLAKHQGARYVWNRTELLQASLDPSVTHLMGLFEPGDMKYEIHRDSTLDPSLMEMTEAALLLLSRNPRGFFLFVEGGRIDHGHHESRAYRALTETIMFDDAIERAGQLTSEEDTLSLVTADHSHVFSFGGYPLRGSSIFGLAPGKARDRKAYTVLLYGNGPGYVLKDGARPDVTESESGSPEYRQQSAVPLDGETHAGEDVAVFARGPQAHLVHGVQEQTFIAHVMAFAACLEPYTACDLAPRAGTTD

B1: MSLN CAR (LG1 CAR) (other)
chain: QLQLQESGPGLVKPSETLSLTCTVSGGSISNSYYWGWIRQPPGKGLEWIGSIYHSGNTYYNPSLKSRVTISVDTSKNQFSLKLSSVTAADTAVYYCVTQDGVGATTTEEYWGQGTLVTVSSAAATTTPAPRPPTPAPTIASQPLSLRPEACRPAAGGAVHTRGLDFACDIYIWAPLAGTCGVLLLSLVITLYCKRGRKKLLYIFKQPFMRPVQTTQEEDGCSCRFPEEEEGGCELRVKFSRSADAPAYQQGQNQLYNELNLGRREEYDVLDKRRGRDPEMGGKPRRKNPQEGLYNELQKDKMAEAYSEIGMKGERRRGKGHDGLYQGLSTATKDTYDALHMQALPPR
notes: Chimeric antigen receptor on engineered primary human T cells; also called MSLN LG1 CAR
In the case of B1, the binding result is listed as “no binding” with ALPG-AF647, “no binding (tested: E:T 3:1)” with GP2 on K562-GP2 cells and “no binding (tested: E:T 3:1)” with SLC2A9 on THP-1 cells.
